# Changes are numbered by the printed parent chain. Numbers in names are those of the source.
# T1: mouse PRLR with an HA tag on HEK293 cells (mouse, UniProt Q08501 20-608)
# T1 construct: whole, on cells; also called HEK293/mPRLR; rodent PRLR; not shown: HA tag
# T1 sequence (looked up): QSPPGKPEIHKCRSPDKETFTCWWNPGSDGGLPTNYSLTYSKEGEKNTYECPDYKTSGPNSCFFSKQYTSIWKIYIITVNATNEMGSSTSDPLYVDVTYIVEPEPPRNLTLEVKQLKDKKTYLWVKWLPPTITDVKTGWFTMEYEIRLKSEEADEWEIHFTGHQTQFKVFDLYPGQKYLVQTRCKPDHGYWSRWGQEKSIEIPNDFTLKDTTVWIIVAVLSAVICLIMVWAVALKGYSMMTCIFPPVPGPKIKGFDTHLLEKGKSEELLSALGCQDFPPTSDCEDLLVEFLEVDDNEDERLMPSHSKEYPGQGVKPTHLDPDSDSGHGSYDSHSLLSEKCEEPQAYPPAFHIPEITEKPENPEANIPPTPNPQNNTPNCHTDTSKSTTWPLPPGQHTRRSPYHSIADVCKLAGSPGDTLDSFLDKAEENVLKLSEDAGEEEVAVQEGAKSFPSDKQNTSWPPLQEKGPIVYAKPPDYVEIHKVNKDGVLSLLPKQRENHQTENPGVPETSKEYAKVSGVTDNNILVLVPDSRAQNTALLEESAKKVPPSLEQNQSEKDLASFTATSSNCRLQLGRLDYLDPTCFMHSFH
# B1: H1H6966N (antibody, human IgG1, V domains shown)
# VH: QVQLVQSGAEVQKPGASVKVSCKVSGYTLTALSIHWVRQAPGKGLEWMGNFDPGDGETIHAQKFQGRVTMTGDTSTDTAYMELSSLRSEDTAVYYCVGVTFDYWGQGTLVTVSS
# VL: EIVMTQSPATLSVSPGERATLSCRASQSVASNLAWYQQKPGQAPRLLLYGASTRATGIPARFSGSGSGTEFTLTISSLQSEDFALYYCQHYNNWPLTFGGGTKVEIK
# notes: Tested with human IgG1 Fc (H1H)
# B2: H1H6967N (antibody, human IgG1, V domains shown)
# VH: EVQLVESGGDLVHPGRSLRLSCAASGFPFDEYAMHWVRQVPGKGLEWVSGISWSNNNIGYADSVKGRFTISRDNAKNSLYLQMNSLRPEDTAFYYCAKSGIFDSWGQGTLVTVSS
# VL: B1 VL with A30S, S31R, N32D, L48I, Y49H, T69A, T74I, L85V, H90Q
# notes: as for B1
# B3: H1H6774P (antibody, human IgG1, V domains shown)
# VH: EVQLVESGGGLAQPGGSLRLSCVASGFTFSTYWMSWVRQAPGKGLDWVGNIKQDGSEQNYVDSVRGRFTISRDNAKNSLFLQMNSLRAEDTGVYYCATLLTKGDYWGQGTLVTVSS
# VL: DIQMTQSPSSLSASVGDSVTITCRASQDISNYLDWFQQKPGKAPKSLIYAASILQGGVPSRFSGSGYGTDFTLTISSLQPEDFATYYCRQYKTYPFTFGPGTKVDIK
# B4: H1H6960N (antibody, human IgG1, V domains shown)
# VH: EVQLVESGGGLVKPGGSLRLSCAASGITFSSYSMNWVRQAPGKGLEWVSSISTRSSLIHYADSVKGRFTISRDNAKNSLYLQMNSLRDEDTAVYYCARWDAAAAFDYWGQGTLVIVSS
# VL: DIQLTQSPSFLSASVGDRVTITCWASQGISSYLAWYQQKPGKAPKLLIYVASTLQSGVPSRFSGSGSGTEFTLTISSLQPEDFATYFCQQLNSYPLTFGGGTKVEIK
# notes: as for B1
# B5: H1H6959N2 (antibody, human IgG1, V domains shown)
# VH: EVQLVESGGGLVQPGRSLRLSCAASGFTFDDYAMHWVRQAPGKGLEWVSGISWHSGIIGYADSVKGRFTISRDNAKNSLYLQMNSLRTEDAALYYCAKIGSYFYFDSWGQGTLVTVSS
# VL: EIVLTQSPGTLSLSPGERATLSCRASQSVSSNYLAWYQQKPGQAPRLLIYGASSRATGIPDRFSGSGSGTDFTLTISRLEPEDFAVYYCQQFGSSGYTFGQGTNLEIK
# notes: as for B1
# B6: H1H6953N (antibody, human IgG1, V domains shown)
# VH: EVQLLESGGGLVQPGGTLRLSCAASGFTFSAYAMSWVRQAPGKGLEWVSSINVRAGDTYYADSVKGRFTISRDNSKNTLFLLMNSLRAEDTAAYYCAKARYSSNWGFDFWGQGTLVTVSS
# VL: DIVMTQSPDSLTVSLGARTTINCQSSQTILHSSNNHNYLAWYQQKPGLPPKLLIYWSSTRESGVPDRFSGSGSGTDFTLTISSLQAEDVAIYYCQQYSNTPYTFGQGTKLEIN
# notes: as for B1
# B7: H1H6976N (antibody, human IgG1, V domains shown)
# VH: EVQLLESGGGFVQPGGSLRLSCAASGFTFSSYAMSWVRQAPGKGLEWVSIISSNGRYTYYADSVKGRFTISRDNSKNTLYLQMNSLRAEDTAVYYCATVTGDWFDPWGQGTLVTVSS
# VL: DIQLTQSPSFLSASVGDRVTITCWASQDIDISLAWYQQKPGKAPKLLIYAASTLQSGVPSKFSGSGSGTDFTLTISSLQPEDFSTYYCQQLNSYPITFGQGTRLDIK
# notes: as for B1
# B8: H1H6975N (antibody, human IgG1, V domains shown)
# VH: EVHLVESGGGLVQPGGSLRLSCAASGFTFSSYEMNWVRQTPGKGLEWISHISSRSVIIYYADSVKGRFTISRDNAKNSLFLQMNSLRAEDTAVYFCAGITIFGIPEYWGQGTLVTVSS
# VL: EIVLTQSPATLSLSPGERATLSCRASQSVSSYFAWYQQKPGQAPRLLIYDASSRATGIPTRFSGSGSGTDFTLTISSLEPEDFAVYYCQQRSSWPITFGQGTRLEIK
# notes: Tested with human IgG1 Fc (H1H); also called H1H6975P
# B9: H1H6765P (antibody, human IgG1, V domains shown)
# VH: EVQLVESGGGVVRPGGSLRLSCVGSGFSFDDHGMNWVRQGPGKGLEWVSGFNWNGGSTNYAESVKGRFTISRDNARNSLFLQMNSLRAEDTALYYCVRGRSGWFNDAFDVWGPGTMVTVSS
# VL: EIVLTQSPGTLSLSPGERATLSCRASQTINSNYLAWYRQKPGQTPRLLIYGTSSRATGIPDRFSGSGSGTDFSLTISRLEPEDFAVFYCQQYAGLPTFGPGTKVDIK
# Target: T1, mouse PRLR with an HA tag on HEK293 …
# Assay: FACS on HEK293/mPRLR cells
row,binding result,Binder
1,no binding,B1
2,no binding,B2
3,no binding,B3
4,no binding,B4
5,no binding,B5
6,no binding,B6
7,no binding,B7
8,no binding,B8
9,no binding,B9
